This is an account of results in US20230056815A1.

Holding throughout (test): cell-based or functional assay
Experiment [1] concerns the target cynomolgus monkey soluble FLT3L (cynomolgus monkey).
The target of experiment [2] is human soluble FLT3L (recombinant huFLT3L) (human) (UniProt P49771).
Experiment [3] concerns the target mouse soluble FLT3L (mouse) (UniProt P49772).

human soluble FLT3L (recombinant huFLT3L) (human), sequence (P49771 27-184): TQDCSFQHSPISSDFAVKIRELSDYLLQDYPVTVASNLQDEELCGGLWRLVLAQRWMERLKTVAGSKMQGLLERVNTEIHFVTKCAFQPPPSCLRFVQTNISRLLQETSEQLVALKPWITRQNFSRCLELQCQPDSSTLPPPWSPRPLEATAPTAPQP
mouse soluble FLT3L (mouse), sequence (P49772 27-189): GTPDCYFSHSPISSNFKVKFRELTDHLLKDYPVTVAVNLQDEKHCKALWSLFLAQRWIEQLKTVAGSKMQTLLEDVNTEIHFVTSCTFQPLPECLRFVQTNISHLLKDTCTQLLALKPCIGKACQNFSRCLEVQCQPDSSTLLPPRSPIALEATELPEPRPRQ

In experiment [1], “commercially available mouse anti-human FLT3L monoclonal antibody (MAB608, R&D Systems)” showed an IC50 (nM), inhibition of FLT3 downregulation on RS4;11 cells of 0.1 nM. In experiment [2], the IC50 (nM) against 0.476 nM FLT3L, ERK phosphorylation in CD133+ stem cells was 0.19 nM; the IC50 (nM) against 0.476 nM FLT3L, MEK phosphorylation in CD133+ stem cells came out at 0.19 nM; the IC50 (nM), inhibition of FLT3 downregulation on RS4;11 cells came to 0.04 nM. This substance also came in with an IC50 (nM), inhibition of FLT3 downregulation on RS4;11 cells in experiment [3] of 0.12 nM.
